Assay results: article PMC3338861

Molecular target: purified BfpD assembly ATPase (enteropathogenic Escherichia coli (EPEC))

purified BfpD assembly ATPase (enzyme)
stoichiometry N: 6
